The values below come from patent US20020115606A1 (MYRIAD GENETICS, published 2002).

T1: PN7740 amino acids 27-322 (yeast; human, UniProt P04386 768-881)
T1 construct: also called novel phosphatase
T1 sequence: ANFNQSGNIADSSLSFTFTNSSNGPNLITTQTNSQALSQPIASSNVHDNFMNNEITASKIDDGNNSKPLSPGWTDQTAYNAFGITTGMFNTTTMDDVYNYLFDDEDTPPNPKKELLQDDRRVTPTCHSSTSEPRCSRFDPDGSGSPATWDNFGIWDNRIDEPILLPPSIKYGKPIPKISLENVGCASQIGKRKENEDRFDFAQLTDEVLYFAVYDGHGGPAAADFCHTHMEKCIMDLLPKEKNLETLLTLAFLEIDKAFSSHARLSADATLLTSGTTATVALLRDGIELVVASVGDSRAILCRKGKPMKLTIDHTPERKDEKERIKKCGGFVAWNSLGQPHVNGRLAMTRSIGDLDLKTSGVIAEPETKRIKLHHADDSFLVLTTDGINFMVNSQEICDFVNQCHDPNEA

B1: SUR1, type-1 sulfonylurea receptor, amino acids 121-270 (other, yeast;human, UniProt P04386 768-881, looked up, not shown: small tags and cut ends)
chain: ANFNQSGNIADSSLSFTFTNSSNGPNLITTQTNSQALSQPIASSNVHDNFMNNEITASKIDDGNNSKPLSPGWTDQTAYNAFGITTGMFNTTTMDDVYNYLFDDEDTPPNPKKEVVYYHNIETSNFPKLLIALLVYWTLAFITKTIKFVKFLDHAIGFSQLRFCLTGLLVILYGMLLLVEVNVIRVRRYIFFKTPREVKPPEDLQDLGVRFLQPFVNLLSKGTYWWMNAFIKTAHKKPIDLRAIGKLPIAMRALTNYQRLCEAF
B2: glutathione-S-transferase M3 (GST trans. M3) amino acids 15-226 (other, yeast;human, UniProt P04386 768-881, looked up, not shown: small tags and cut ends)
chain: ANFNQSGNIADSSLSFTFTNSSNGPNLITTQTNSQALSQPIASSNVHDNFMNNEITASKIDDGNNSKPLSPGWTDQTAYNAFGITTGMFNTTTMDDVYNYLFDDEDTPPNPKKERGLAHAIRLLLEFTDTSYEEKRYTCGEAPDYDRSQWLDVKFKLDLDFPNLPYLLDGKNKITQSNAILRYIARKHNMCGETEEEKIRVDIIENQVMDFRTQLIRLCYSSDHEKLKPQYLEELPGQLKQFSMFLGKFSWFAGEKLTFVDFLTYDILDQNRIFDPKCLDEFPNLKAFMCRFEALEKIAAYLQSDQFCKMPINNKMAQWGNKPVC
B3: KIAA0427 amino acids 364-589 (other, yeast;human, UniProt P04386 768-881, looked up, not shown: small tags and cut ends)
chain: ANFNQSGNIADSSLSFTFTNSSNGPNLITTQTNSQALSQPIASSNVHDNFMNNEITASKIDDGNNSKPLSPGWTDQTAYNAFGITTGMFNTTTMDDVYNYLFDDEDTPPNPKKETTTPQQNKMDKLIEILNSMRNNSSDVDTKLTTFMEEAQNSTNSEEMLGEIVRTIYQKAVSDRSFAFTAAKLCDKMALFMVEGTKFRSLLLNMLQKDFTVREELQQQDVERWLGFITFLCEVFGTMRSSTGEPFRVLVCPIYTCLRELLQSQDVKEDAVLCCSMELQSTGRLLEEQLPEMMTELLASARDKMLCPSESMLTRSLLLEVIELHANSWNPLTPPITQYY
B4: stearoyl CoA desaturase (SCD2) amino acids 320-359 (other)
chain: ANFNQSGNIADSSLSFTFTNSSNGPNLITTQTNSQALSQPIASSNVHDNFMNNEITASKIDDGNNSKPLSPGWTDQTAYNAFGITTGMFNTTTMDDVYNYLFDDEDTPPNPKKETTFFIDCMAALGLAYDRKKVSKAAILARIKRTGDGNYKSG
notes: range 768-881;range 320-359; also called Delta(9) desaturase
B5: Presenilin 2 (PS2) amino acids 1-97 (other, UniProt P04386 1-147, looked up)
chain: MKLLSSIEQACDICRLKKLKCSKEKPKCAKCLKNNWECRYSPKTKRSPLTRAHLTEVESRLERLEQLFLLIFPREDLDMILKMDSLQDIKALLTGLFVQDNVNKDAVTDRLASVETDMPLTLRQHRISATSSSEESSNKGQRQLTVSMLTFMASDSEEEVCDERTSLMSAESPTPRSCQEGRQGPEDGENTAQWRSQENEEDGEEDPDRYVCSGVPGRPPGLEEELTLKYGAKHVIMLFVPVTL
notes: also called Presinilin 2
B6: casein kinase II (CK2) amino acids 264-351 (other, yeast;human, UniProt P04386 768-881, looked up, not shown: small tags and cut ends)
chain: ANFNQSGNIADSSLSFTFTNSSNGPNLITTQTNSQALSQPIASSNVHDNFMNNEITASKIDDGNNSKPLSPGWTDQTAYNAFGITTGMFNTTTMDDVYNYLFDDEDTPPNPKKEIDLDPHFNDILGQHSRKRWENFIHSENRHLVSPEALDLLDKLLRYDHQQRLTAKEAMEHPYFYPVVKEQSQPCADNAVLSSGLTAAR
B7: Fe65 amino acids 360-552 (first phosphotyrosine binding domain, PTB) (other, UniProt P04386 1-147, looked up)
chain: MKLLSSIEQACDICRLKKLKCSKEKPKCAKCLKNNWECRYSPKTKRSPLTRAHLTEVESRLERLEQLFLLIFPREDLDMILKMDSLQDIKALLTGLFVQDNVNKDAVTDRLASVETDMPLTLRQHRISATSSSEESSNKGQRQLTVSPRNTNPGIKCFAVRSLGWVEMTEEELAPGRSSVAVNNCIRQLSYHKNNLHDPMSGGWGEGKDLLLQLEDETLKLVEPQSQALLHAQPIISIRVWGVGRDSGRERDFAYVARDKLTQMLKCHVFRCEAPAKNIATSLHEICSKIMAERRNARCLVNGLSLDHSKLVDVPFQVEFPAPKNELVQKFQVYYLGNVP
B8: Mint1 amino acids 739-837 (other, UniProt P04386 1-147, looked up)
chain: MKLLSSIEQACDICRLKKLKCSKEKPKCAKCLKNNWECRYSPKTKRSPLTRAHLTEVESRLERLEQLFLLIFPREDLDMILKMDSLQDIKALLTGLFVQDNVNKDAVTDRLASVETDMPLTLRQHRISATSSSEESSNKGQRQLTVSIVRCPPVTTVLIRRPDLRYQLGFSVQNGIICSLMRGGIAERGGVRVGHRIIEINGQSVVATPHEKIVHILSNAVGEIHMKTMPAAMYRLLTAQEQPVYI
notes: also called X11 alpha
B9: Mint2 amino acids 1-210 (other, UniProt P04386 1-147, looked up)
chain: MKLLSSIEQACDICRLKKLKCSKEKPKCAKCLKNNWECRYSPKTKRSPLTRAHLTEVESRLERLEQLFLLIFPREDLDMILKMDSLQDIKALLTGLFVQDNVNKDAVTDRLASVETDMPLTLRQHRISATSSSEESSNKGQRQLTVSMAHRKLESVGSGMLDHRVRPGPVPHSQEPESEDMELPLEGYVPEGLELAALRPESPAPEEQECHNHSPDGDSSSDYVNNTSEEEDYDEGLPEEEEGITYYIRYCPEDDSYLEGMDCNGEEYLAHSAHPVDTDECQEAVEEWTDSAGPHPHGHEAEGSQDYPDGQLPIPEDEPSVLEAHDQEEDGHYCASKEGYQDYYPEEANGNTGASPY
notes: also called X11 beta
B10: CIB amino acids 1-191 (other, UniProt P04386 1-147, looked up)
chain: MKLLSSIEQACDICRLKKLKCSKEKPKCAKCLKNNWECRYSPKTKRSPLTRAHLTEVESRLERLEQLFLLIFPREDLDMILKMDSLQDIKALLTGLFVQDNVNKDAVTDRLASVETDMPLTLRQHRISATSSSEESSNKGQRQLTVSMGGSGSRLSKELLAEYQDLTFLTKQEILLAHRRFCELLPQEQRSVESSLRAQVPFEQILSLPELKANPFKERICRVFSTSPAKDSLSFEDFLDLLSVFSDTATPDIKSHYAFRIFDFDDDGTLNREDLSRLVNCLTGEGEDTRLSASEMKQLIDNILEESDIDRDGTINLSEFQHVISRSPDFASSFKIVL
B11: BAT3 (HLA-B associated transcript) amino acids 740-1040 (other, UniProt P04386 1-147, looked up)
chain: MKLLSSIEQACDICRLKKLKCSKEKPKCAKCLKNNWECRYSPKTKRSPLTRAHLTEVESRLERLEQLFLLIFPREDLDMILKMDSLQDIKALLTGLFVQDNVNKDAVTDRLASVETDMPLTLRQHRISATSSSEESSNKGQRQLTVSFEPGADGALGFFGALLSLLCQNFSMVDVVMLLHGHFQPLQRLQPQLRSFFHQHYLGGQEPTPSNIRMATHTLITGLEEYVRESFSLVQVQPGVDIIRTNLEFLQEQFNSIAAHVLHCTDSGFGARLLELCNQGLFECLALNLHCLGGQQMELAAVINGRIRRMSRGVNPSLVSWLTTMMGLRLQVVLEHMPVGPDAILRYVRRVGDPPQPLPEEPMEVQGAERASPEPQRENASPAPGTTAEEAMSRGPPPAPEGGSRDEQDGASAETEPWAAAVPPEWVPIIQQDIQSQRKVKPQPPLSD

Experiment [1] concerns the target T2, Focal adhesion kinase 2 (FAK2) amino acids 673-866 (yeast, UniProt P04386 1-147; Q14289 673-866).
T2 construct: also called PYK2; CAKβ
The experiment is described as follows: yeast two-hybrid. An excerpt: (§1) The principles and methods of the yeast two-hybrid systems have been described in detail (Bartel and Fields, 1997). The following is thus a description of the particular procedure that was used, which was applied to all proteins.
(§2) The cDNA encoding the bait protein was generated by PCR from brain cDNA. Gene-specific primers were synthesized with appropriate tails added at their 5′ ends to allow recombination into the vector pGBTQ. The tail for the forward primer was 5′-[…]-3′ (SEQ ID NO: 1) and the tail for the reverse primer was 5′-[…]-3′ (SEQ ID NO:2). […] The new construct was selected directly in the yeast J693 for its ability to drive tryptophane synthesis (genotype of this strain: Mat α, ade2, his3, leu2, trp1, URA3::GAL1-lacZ LYS2::GAL1-HIS3 gal4del gal80del cyhR2). In these yeast cells, the bait is produced as a C-terminal fusion protein with the DNA binding domain of the transcription factor Gal4 (amino acids 1 to 147). A total human brain (person) cDNA library cloned into the yeast expression vector pACT2 was purchased from Clontech (human brain […] cDNA, cat. # HL4004AH), transformed into the yeast strain J692 (genotype of this strain: Mat α, ade2, his3, leu2, trp1, URA3::GAL1-lacZ LYS2::GAL1-HIS3 gal4del gal80del cyhR2), and selected for the ability to drive leucine synthesis. In these yeast cells, each cDNA is expressed as a fusion protein with the transcription activation domain of the transcription factor Gal4 (amino acids 768 to 881) and a 9 amino acid hemagglutinin epitope tag. J693 cells […] expressing the bait were then mated with J692 cells […] expressing proteins from the brain library. The resulting diploid yeast cells expressing proteins interacting with the bait protein were selected for the ability to synthesize tryptophane, leucine, histidine, and β-galactosidase.

Experiment [2] concerns the target Focal adhesion kinase (FAK) amino acids 724-1052 (yeast, UniProt P04386 1-147; Q05397 724-1052). The experiment is described as follows: yeast two-hybrid.
From the text: as §1, §2

Experiment [3] addresses T3, Mint1 amino acids 447-758 (yeast, UniProt P04386 1-147; Q02410 447-758).
T3 construct: also called X11 alpha
The experiment is described as follows: yeast two-hybrid.
From the text: as §1, §2

Experiment [4] concerns the target B10. The experiment is described as follows: yeast two-hybrid, Gal4, human brain cDNA library.
Experiment [5] deals with glyceraldehyde-3-phosphate dehydrogenase (GAPDH) amino acids 2-190 (yeast; human, UniProt P04386 768-881; P04406 2-190). Kind of experiment: yeast two-hybrid.
From the text: as §1, §2

For experiment [6], the target named is T1, PN7740 amino acids 27-322. The experiment is described as follows: yeast two-hybrid.
From the text: as §1, §2

Experiment [7] addresses T4, glutamine synthase (GS) amino acids 49-212 (yeast; human, UniProt P04386 768-881; P15104 49-212).
T4 construct: also called glutamine synthetase; glutamate ammonia ligase
Kind of experiment: yeast two-hybrid.
From the text: as §1, §2

The target in experiment [8] is phosphodiesterase 9A (PDE-9A) amino acids 269-593 (yeast; human, UniProt P04386 768-881; O76083 269-593). The experiment is described as follows: yeast two-hybrid.
From the text: as §1, §2

Experiment [9] deals with T5, mixed lineage kinase 2 (MLK2) amino acids 305-549 (yeast; human, UniProt P04386 768-881; Q02779 305-549).
T5 construct: also called MST; MAP3K10
Kind of experiment: yeast two-hybrid.
From the text: as §1, §2

Experiment [10] addresses transthyretin (TTH) amino acids 7-148 (yeast; human, UniProt P04386 768-881; P02766 7-147). The experiment is described as follows: yeast two-hybrid.
From the text: as §1, §2

B1: the binding result in experiment [1] is “binds”.

Turning to B2, in [2], the binding result is “binds”.

Regarding B3, the binding result in experiment [3] was “binds”.

Take B4: the binding result in experiment [4] is on record as “binds”.

With B5, the binding result in experiment [5] is reported as “binds”.

Turning to B6, the binding result in experiment [2] was “binds”.

Turning to B7, the binding result in [6] is “binds”.

As for B8, the binding result in [7] was “binds”.

Take B9: the binding result in experiment [8] is “binds”.

Regarding B10, in [9], the binding result was “binds”.

With B11, the binding result in experiment [10] is “binds”.
